Reference: the RNAGym collection of RNA variant scans (doi:10.1073/pnas.2313332121)
This sample holds only a part of the variants without activity.

B1: TPR 5TU (parent)
chain: GGAUCUUCUCGAUCUAACAAAAAAGACAAAUCUGCCACAAAGCUUGAGAGCAUCUUCGGAUGCAGAGGCGGCAGCCUUCGGUGGCGCGAUAGCGCCAACGUUCUCAACUAUGACACGCAAAACGCGUGCUCCGUUGAAUGGAGUUUAUCAUG

Variants of: B1
Assay: polymerase ribozyme fitness, log enrichment relative to wild type (log ratio); higher = more active; in vitro selection for triplet polymerase activity
Summary of the method: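 Both subunits of a heterodimeric triplet polymerase ribozyme were given their own mutant library, built by PCR and transcribed. Each library was annealed with a biotinylated primer, the partner subunit and triplets, incubated frozen at −7 °C, and its extended constructs gel-excised, captured on streptavidin beads and amplified by RT-PCR, all in one round done in triplicate. Fitness is the logarithm of genotype enrichment relative to wild-type enrichment, with replicates averaged by inverse-variance weighting. That logarithm is base 2, and Illumina-sequenced genotypes needed ≥10 input reads and ≥1 read per output.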

| Variant | polymerase ribozyme fitness (log ratio) |
| --- | --- |
| A29U G92C C95U A106C C114U G128U A138G | ≤ -4.2 |
| A29C G46U U127G | ≤ -4.2 |
| A28U C95U C99U C118A | ≤ -4.2 |
| A28U U45A U78G G81C C116G G136U | ≤ -4.2 |
| A28U C93G | ≤ -4.2 |
| A29C A52C C76U C96A U135G A147C | -4.08 |
| A29C C69G C103G U151G | ≤ -4.2 |
| A29G C75U C96U U139G | ≤ -4.2 |
| A28G U44A U45A C76G U111C G133U | ≤ -4.2 |
| A28U C99G | -3.72 |
| A28U U82C C93U C96G C105A | ≤ -4.2 |
| A28G G92U C93A | ≤ -4.2 |
| A28U A52C | -3.54 |
| A28U A37C | -3.93 |
| A28U C32G C87U C99G | ≤ -4.2 |
| A28G A66C C79U G92U U148C | -3.86 |
| A30C | -3.12 |
| A29G G86U U102G U134G G140U C149A | ≤ -4.2 |
| A29U A142C | -4.15 |
| A29U G50U G59A C87A | ≤ -4.2 |
| A29G C54U G59A C76U U82C G88C C95G C96G | ≤ -4.2 |
| A28U G70C A91G G133C | ≤ -4.2 |
| A29U G46C G50C C95G C114G | ≤ -4.2 |
| A29U A47C C54A G94A U102G A110G C132A | ≤ -4.2 |

| Variant | polymerase ribozyme fitness (log ratio) |
| --- | --- |
| A29U A40C U56A G88A A121U G126A G136A | -3.9 |
| A28U G84U G86A G94A A98G C131A | ≤ -4.2 |
| A29C C54U G84A A97U | ≤ -4.2 |
| A29U C32U G34C C72U C95A G140C | ≤ -4.2 |
| A28G U53A U144G | ≤ -4.2 |
| A28U G88C A91U C118A | ≤ -4.2 |
| A29C A41G G46U A49G C75U G83A A121G G152U | ≤ -4.2 |
| A29U C54U U78C C99G C116U | ≤ -4.2 |
| A29G U53A A110G A120U C123G | ≤ -4.2 |
| A29C C43G U53A G62U A147C | ≤ -4.2 |
| A28G C57G G84A A98G C114U | ≤ -4.2 |
| A28G U61G C75A C93U U104G U135A | ≤ -4.2 |
| A28U C32G G133C | ≤ -4.2 |
| A28U C63U C72U C93U C105G A142U | ≤ -4.2 |
| A28U A49C G58C G59A G84U U146A C149U | ≤ -4.2 |
| A28G U55A G67U A89C C129A G140C | ≤ -4.2 |
| A28U C35U C87G C103U A121G A122G | ≤ -4.2 |
| A29C U33A A41C U45A A91G | ≤ -4.2 |
| A29U C54U U56G C57U C93U C103U G133A | ≤ -4.2 |
| A29G U31C A52G C57U C85U C87A A150U | ≤ -4.2 |
| A29C C87U G94U A107C U127G G140A | ≤ -4.2 |
| A29G C95A A119C G141C | ≤ -4.2 |
| A29G C93U A107G U148G | ≤ -4.2 |
| A28U A64G G68U G83U A121C G143A | ≤ -4.2 |

| Variant | polymerase ribozyme fitness (log ratio) |
| --- | --- |
| A29G A52C G74A G92U C95G | ≤ -4.2 |
| A28U C96A A121U U148C | ≤ -4.2 |
| A28U C38A C63U G83A C103A | ≤ -4.2 |
| A28G C51A G80A | ≤ -4.2 |
| A30C A49U C57G C79A C96U A107U | ≤ -4.2 |
| A29G A98G | ≤ -4.2 |
| A28U C32A G50C C96A A106G U127G | ≤ -4.2 |
| A29U A40C G62U G70A G84A C96A U139C | ≤ -4.2 |
| A28U A49C U56A C95A C96U C108U | ≤ -4.2 |
| A28G A73U | ≤ -4.2 |
| A29U A30G C51U A89G C149A | ≤ -4.2 |
| A28U A47G C96A G141A | ≤ -4.2 |
| A28G U145C | ≤ -4.2 |
| A29C C79G C96U U104C | ≤ -4.2 |
| A30C A40C U56A A60G A66G A89U C93A C99U A106C G126U C131U U134A | ≤ -4.2 |
| A28G C54G C76U G94A | -4 |
| A29G U53A | -3.63 |
| A28U A110C | ≤ -4.2 |
| A29U C57A U61A A121U | ≤ -4.2 |
| A28U C51A C54U C85U C123G C129U | ≤ -4.2 |
| A29G U78C | ≤ -4.2 |
| A29C C57U U104G G128U | ≤ -4.2 |
| A29U A40G U53A C95G | ≤ -4.2 |
| A28U A41C C54A A60C C96A C105U A106U | ≤ -4.2 |

| Variant | polymerase ribozyme fitness (log ratio) |
| --- | --- |
| A28U G86A | -4.08 |
| A29G C85A C114A A121G U134C | ≤ -4.2 |
| A29U A97G A121G G140C | ≤ -4.2 |
| A29U C95A U134C G140C | ≤ -4.2 |
| A30C A60C | ≤ -4.2 |
| A28U A60C A91G A98U | ≤ -4.2 |
| A29U C32G C75U U77G G80A | ≤ -4.2 |
| A29C G94C A97G A98G U104G | ≤ -4.2 |
| A29C C108A A142U | ≤ -4.2 |
| A28U C57G | -3.84 |
| A28G G42U G88A C93U C118A | ≤ -4.2 |
| A28G C43G G83U C93A U135G | ≤ -4.2 |
| A29G G94U C114U G128A | ≤ -4.2 |
| A28U G42C G83C A121U | ≤ -4.2 |
| A28U G59A | ≤ -4.2 |
| A28U G94A | ≤ -4.2 |
| A28U A41G G42C G94C | ≤ -4.2 |
| A28U G80U | -4.11 |
| A28U U33G A89G A91G C95A A98C | ≤ -4.2 |
| A28U G133U A137C | ≤ -4.2 |
| A29U U61A G67A C96U | ≤ -4.2 |
| A29C A49U A150C | ≤ -4.2 |
| A29U G46C G83C C108U | ≤ -4.2 |
| A28G G46A U55G C57A A73U C96A | ≤ -4.2 |

| Variant | polymerase ribozyme fitness (log ratio) |
| --- | --- |
| A28U C51A A52C C76U U78G A89G | ≤ -4.2 |
| A29U G58A C85G A138C | ≤ -4.2 |
| A29C U31G C95A A119G A142C G152U | ≤ -4.2 |
| A29C C63A C87U U101C A115C G117C G133A | ≤ -4.2 |
| A28U A49C U56A C95A C96U C108U G128U | ≤ -4.2 |
| A29U C95A A106G U134A | ≤ -4.2 |
| A28U A41C U61A C99A A122C | ≤ -4.2 |
| A29U G59C A64G C96G U104C U109G | ≤ -4.2 |
| A28G A49G C54U C85A U144G | ≤ -4.2 |
| A29U G68A G81A | ≤ -4.2 |
| A29U G50U U55A G86C G141C | ≤ -4.2 |
| A29U G48A A49C C87G | ≤ -4.2 |
| A29U A41G G48C A138G | ≤ -4.2 |
| A29U A52G C76G G84A C116G C118A A137G G141A C149U G152C | ≤ -4.2 |
| A28U U44A U55A U77G A120U | ≤ -4.2 |
| A28G U44G C51U C75A C76G G84U G140A | ≤ -4.2 |
| A29U G112C A121G G136U A137G U145A | ≤ -4.2 |
| A28U C54G C69U C79U A91U U134G | ≤ -4.2 |
| A28U C38U G59U A60G G94A C95U C103U | ≤ -4.2 |
| A28G A47U A49C C85A G136C U146G | ≤ -4.2 |
| A29U A37C U55G U135C | ≤ -4.2 |
| A28U U56A A97G | ≤ -4.2 |
| A29G C57A C93A C96A U145G | ≤ -4.2 |
| A29U U61A G74U C118A U130A | ≤ -4.2 |

| Variant | polymerase ribozyme fitness (log ratio) |
| --- | --- |
| A29U A39G U55A G92A | ≤ -4.2 |
| A28U C35A A41U U53A G59A C85U G128A | ≤ -4.2 |
| A28G U33A A40U C87U G92A U127A G152U | -3.85 |
| A29C A30U A89C | ≤ -4.2 |
| A29U G59A C79G G80U G84U G124U | ≤ -4.2 |
| A29C A30C G62C C125G A137G A142U | -4.11 |
| A28U A41U G67C C93U | ≤ -4.2 |
| A29C C76A A91U A110G | ≤ -4.2 |
| A29U G62C G70A A137U A138C | ≤ -4.2 |
| A28G U55A G58C A122G | ≤ -4.2 |
| A29G A49G C51U G70A A107U | ≤ -4.2 |
| A29C G88C G92U | ≤ -4.2 |
| A29U C38A G50C A52C A66U G74C C108G C132A | ≤ -4.2 |
| A28G C76A A107G G141U U148C | ≤ -4.2 |
| A29C U55A U77G U101G U146A U148G | ≤ -4.2 |
| A29C C35A U53A C57U G92A C118U A122G G136A C149U | ≤ -4.2 |
| A29U U90G C95U A115G G117U A120U | ≤ -4.2 |
| A28U C36A A47G G59A C85A C129U U145A | ≤ -4.2 |
| A29G C54A | -3.78 |
| A29C A52G U61A A122U G141U | ≤ -4.2 |
| A29U C76G U82G G88C | ≤ -4.2 |
| A29U G124U | ≤ -4.2 |
| A28G G86U | -3.52 |
| A29G G68C C96U U102G U135G C149A | ≤ -4.2 |

| Variant | polymerase ribozyme fitness (log ratio) |
| --- | --- |
| A29G G34A U56A C75U | ≤ -4.2 |
| A28U G48C C75U U90G G117A C129G | ≤ -4.2 |
| A28U G48C C85A A97U A122G G143A U146C | ≤ -4.2 |
| A29U U77A C95G | ≤ -4.2 |
| A29G C57G G136U | ≤ -4.2 |
| A28U U82G A137C | ≤ -4.2 |
| A28U G92C A113U | ≤ -4.2 |
| A28U G50A U77C C85A C96G C105G G141A U144C | ≤ -4.2 |
| A29C G68A G92C G133A | ≤ -4.2 |
| A29U C38U A64U G88A A97U C116U | ≤ -4.2 |
| A28U C69A C75U U139G | ≤ -4.2 |
| A29C U55A | -3.74 |
| A28U C116G | -3.74 |
| A28G C36U C87A A119U G133A | ≤ -4.2 |
| A28U G59C C93U A138G | ≤ -4.2 |
| A28U U31C A91G C108U G136U A142G | ≤ -4.2 |
| A29C C96A U102G G124U | ≤ -4.2 |
| A28G G58C C87U C99U | ≤ -4.2 |
| A28U U44G A60C C85A U144C U148A | ≤ -4.2 |
| A28U G84A C125U G126A G152U | ≤ -4.2 |
| A28U A41U C93U U144C | -4.14 |
| A28U G50C | ≤ -4.2 |
| A28U G58A G88C G133A A138G G143U | ≤ -4.2 |
